Like-named read-outs stand apart in the source and are kept apart here. Where only a bound is given, the exact number is not on record here.

The target in one experiment is hCCR8 (L181A) (human, UniProt P51685 1-355). In words: flow cytometry, transfected Expi293 cells. The procedure:
(§1) In addition to the chimeras of human CCR4 and the point mutants at the N-terminal region of human CCR8 produced in Example 3, binding evaluation was also performed for point mutants at loop1 and loop2 regions of human CCR8. […] After reacting at room temperature for 3 hours, it was reacted with Alexa488-labeled Anti-human IgG antibody (Thermo Fisher Scientific) and flow cytometry analysis was performed.
(§2) In comparison to human CCR8, a mutant having binding activity of 70% or less was indicated as Δ and a mutant having binding activity of 20% or less was indicated as x.
(A flow cytometer gives signals particle by particle.)

In experiment [1] the target is T1, loop2 hCCR4-hCCR8 (human, UniProt P51685 1-355).
T1 construct: chimera on Expi293 cells; hCCR8 ranges derived; also called loop2-human CCR4-substituted human CCR8
The experiment in a line: flow cytometry, transfected Expi293 cells. The procedure: as §1, §2

For a further experiment, the target named is hCCR8 (V180A) (human, UniProt P51685 1-355). In words: flow cytometry, transfected Expi293 cells. The procedure: as §1, §2
The target in the next experiment is T2, hCCR8 (L5A) (human, UniProt P51685 1-355).
T2 construct: also called hCCR8 (LSA)
The experiment in a line: flow cytometry, transfected Expi293 cells. The procedure:
as §1, §2

In another experiment the target is hCCR8 (N188A) (human, UniProt P51685 1-355). The experiment in a line: flow cytometry, transfected Expi293 cells. How it is done:
as §1, §2

The target in another experiment is T3, hCCR8 (I20A) (human, UniProt P51685 1-355).
T3 construct: also called hCCR8 (120A)
In words: flow cytometry, transfected Expi293 cells. The procedure:
as §1, §2

Experiment [2] has as its target T4, loop1 hCCR4-hCCR8 (human, UniProt P51685 1-355).
T4 construct: chimera on Expi293 cells; hCCR8 ranges derived; also called loop 1-human CCR4-substituted human CCR8
The experiment in a line: flow cytometry, transfected Expi293 cells. How it is done:
as §1, §2

In another experiment the target is T5, hCCR8 (T32A) (human, UniProt P51685 1-355).
T5 construct: also called hCCR8 (132A)
In words: flow cytometry, transfected Expi293 cells. The procedure:
as §1, §2

Experiment [3] deals with T6, hCCR8 (K35A) (human, UniProt P51685 1-355). In words: flow cytometry, transfected Expi293 cells. How it is done:
as §1, §2

The target in the next experiment is hCCR8 (S22A) (human, UniProt P51685 1-355). In words: flow cytometry, transfected Expi293 cells. How it is done: as §1, §2
Another experiment addresses hCCR8 (D97A) (human, UniProt P51685 1-355). The experiment in a line: flow cytometry, transfected Expi293 cells. How it is done:
as §1, §2

Experiment [4] concerns the target T7, human CCR8 (human, UniProt P51685 1-355). The experiment in a line: cell-based or functional assay.
Experiment [5] has as its target T7, human CCR8. In words: cell-based or functional assay. This is another data set of the same source.
The target in experiment [6] is T7, human CCR8. The experiment in a line: cell-based or functional assay. This is another data set of the same source.
Experiment [7] addresses T7, human CCR8. In words: cell-based or functional assay. This is another data set of the same source.
Another experiment deals with T8, N-ter hCCR4-hCCR8 (human).
T8 construct: chimera on Expi293 cells; remaining hCCR8 ranges derived from the stated swapped ranges and the 355-residue length; also called N-terminal region human CCR4-substituted human CCR8
T8 chain: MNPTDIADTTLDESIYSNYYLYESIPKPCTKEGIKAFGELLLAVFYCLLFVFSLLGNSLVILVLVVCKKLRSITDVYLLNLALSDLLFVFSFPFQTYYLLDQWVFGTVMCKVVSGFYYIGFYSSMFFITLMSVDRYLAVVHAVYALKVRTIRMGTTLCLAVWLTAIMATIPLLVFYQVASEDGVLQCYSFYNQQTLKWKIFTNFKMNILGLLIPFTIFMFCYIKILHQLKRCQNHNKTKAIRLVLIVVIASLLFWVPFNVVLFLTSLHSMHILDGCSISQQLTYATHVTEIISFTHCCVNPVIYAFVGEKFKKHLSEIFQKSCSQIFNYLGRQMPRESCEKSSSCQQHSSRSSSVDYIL
In words: flow cytometry, transfected Expi293 cells.

Experiment [8] addresses T6, hCCR8 (K35A). The experiment in a line: flow cytometry, transfected Expi293 cells. The source holds these as a separate data set.
The next experiment deals with T9, mouse CCR8 (mouse, UniProt P56484 1-353).
T9 construct: also called mCCR8
T9 sequence: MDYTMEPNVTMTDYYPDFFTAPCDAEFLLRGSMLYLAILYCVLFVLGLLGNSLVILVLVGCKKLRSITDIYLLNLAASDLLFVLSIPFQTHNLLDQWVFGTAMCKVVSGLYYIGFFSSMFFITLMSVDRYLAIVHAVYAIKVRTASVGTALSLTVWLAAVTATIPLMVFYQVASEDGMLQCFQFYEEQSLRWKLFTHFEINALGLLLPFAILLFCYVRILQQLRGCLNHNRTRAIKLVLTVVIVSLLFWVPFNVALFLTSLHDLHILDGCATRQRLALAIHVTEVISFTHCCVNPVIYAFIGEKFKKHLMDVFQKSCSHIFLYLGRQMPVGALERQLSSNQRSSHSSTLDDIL
The experiment in a line: flow cytometry, transfected Expi293 cells.

For a further experiment, the target named is hCCR8 (Y17A) (human, UniProt P51685 1-355). In words: flow cytometry, transfected Expi293 cells.
The next experiment concerns the target T10, human CCR4 (human, UniProt P51679 1-360).
T10 construct: also called hCCR4
T10 sequence: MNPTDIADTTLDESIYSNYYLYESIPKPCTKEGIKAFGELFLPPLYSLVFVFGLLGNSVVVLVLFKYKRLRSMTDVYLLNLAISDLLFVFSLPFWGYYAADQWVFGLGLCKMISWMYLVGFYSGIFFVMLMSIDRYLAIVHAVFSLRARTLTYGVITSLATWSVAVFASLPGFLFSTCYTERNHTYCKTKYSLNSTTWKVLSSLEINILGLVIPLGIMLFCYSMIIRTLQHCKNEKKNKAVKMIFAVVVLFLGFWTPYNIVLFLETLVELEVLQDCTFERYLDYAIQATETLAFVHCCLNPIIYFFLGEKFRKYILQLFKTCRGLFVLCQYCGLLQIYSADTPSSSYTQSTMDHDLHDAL
The experiment in a line: flow cytometry, transfected Expi293 cells.

Experiment [9] addresses T1, loop2 hCCR4-hCCR8. In words: flow cytometry, transfected Expi293 cells; Δ = significantly reduced vs hCCR8.
Experiment [10] has as its target T4, loop1 hCCR4-hCCR8. The experiment is described as above.
Experiment [11] addresses T7, human CCR8. The experiment in a line: cell-based or functional assay. This is another data set of the same source.
For experiment [12], the target named is T7, human CCR8. The experiment in a line: cell-based or functional assay. This is another data set of the same source.
A further experiment addresses T11, loop3 hCCR4-hCCR8 (human, UniProt P51685 1-355).
T11 construct: chimera on Expi293 cells; hCCR8 ranges derived
In words: flow cytometry, transfected Expi293 cells. How it is done: as §1, §2

The target of a further experiment is hCCR8 (L29A) (human, UniProt P51685 1-355). In words: flow cytometry, transfected Expi293 cells. How it is done: as §1, §2
Another experiment has as its target hCCR8 (K193A) (human, UniProt P51685 1-355). In words: flow cytometry, transfected Expi293 cells. The procedure:
as §1, §2

In another experiment the target is hCCR8 (T13A) (human, UniProt P51685 1-355). In words: flow cytometry, transfected Expi293 cells. The procedure:
as §1, §2

The next experiment has as its target hCCR8 (Y15A) (human, UniProt P51685 1-355). In words: flow cytometry, transfected Expi293 cells. The procedure: as §1, §2
A further experiment deals with hCCR8 (S23A) (human, UniProt P51685 1-355). In words: flow cytometry, transfected Expi293 cells. How it is done:
as §1, §2

In the next experiment the target is hCCR8 (T11A) (human, UniProt P51685 1-355). In words: flow cytometry, transfected Expi293 cells. The procedure: as §1, §2
For another experiment, the target named is hCCR8 (T10A) (human, UniProt P51685 1-355). The experiment in a line: flow cytometry, transfected Expi293 cells. The procedure: as §1, §2

T7 sequence (P51685 whole entry): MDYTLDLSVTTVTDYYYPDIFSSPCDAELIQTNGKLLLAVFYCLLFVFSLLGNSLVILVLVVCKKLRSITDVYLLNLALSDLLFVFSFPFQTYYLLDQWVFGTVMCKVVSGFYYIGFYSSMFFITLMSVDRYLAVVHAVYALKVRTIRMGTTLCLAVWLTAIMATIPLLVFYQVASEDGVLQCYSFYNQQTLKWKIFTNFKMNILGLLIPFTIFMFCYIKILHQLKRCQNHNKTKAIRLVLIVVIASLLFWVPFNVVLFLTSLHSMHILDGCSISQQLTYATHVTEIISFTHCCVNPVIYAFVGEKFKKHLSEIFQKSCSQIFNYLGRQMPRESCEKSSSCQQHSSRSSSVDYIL
Chain of hCCR8 (Y17A) (P51685 whole entry Y17A): as the sequence (P51685 whole entry) above, with Y17A counted along it

B1: h10A11 (IGKV4-1/IGHV3-15 T94R) (antibody, V domains shown)
VH: EVQLVESGGALVKPGGSLRLSCAASGFTFSTYALYWVRQAPGKGLEWVGRIRSKSNNYATYYADSVKDRFTISRDDSKNTLYLQMNSLKTEDTAVYYCTRARFYYSDYGYAMDYWGQGTLVTVSS
VL: DIVMTQSPDSLAVSLGERATINCRSSKSLLHSNGNTYLYWYQQKPGQPPKLLIYRMSNLASGVPDRFSGSGSGTDFTLTISSLQAEDVAVYYCMQHLEYPLTFGQGTKLEIKR
notes: humanized; detected with anti-human IgG; also called humanized 10A11 antibody (light chain variable region: IGKV4-1/heavy chain variable region: IGHV3-15 T94R)
With B1, the “binding activity in comparison to human CCR8” value (“binding activity in comparison” for short) in the experiment with hCCR8 (L181A), in the experiment with loop2 hCCR4-hCCR8 [1], in the experiment with hCCR8 (V180A), with hCCR8 (L5A), with hCCR8 (N188A) and in the experiment with hCCR8 (I20A) was not above 70% throughout. Besides, the “binding activity in comparison” value with loop1 hCCR4-hCCR8 [2], with hCCR8 (T32A), with hCCR8 (K35A) [3], in the experiment with hCCR8 (S22A) and with hCCR8 (D97A) was not above 70% in each case. In the experiment with human CCR8 [4], the “IC50 ratio (WT IC50/mutant IC50)” value was 1 ratio. In addition, the “IC50 (nM), Ca2+ influx by 200 nM hCCL1” value with human CCR8 [5] came to 0.15 nM.

B2: h10A11 (IGKV4-1/IGHV3-73) (antibody, V domains shown)
VH: EVQLVESGGGLVQPGGSLKLSCAASGFAFNTYALYWVRQASGKGLEWVGRIRSKSNNYATYYADSVKDRFTISRDDSKNTAYLQMNSLKTEDTAVYYCTRARFYYSDYGYAMDYWGQGTLVTVSS
VL: DIVMTQSPDSLAVSLGERATINCRSSKSLLHSNGNTYLYWYQQKPGQPPKLLIYRMSNLASGVPDRFSGSGSGTDFTLTISSLQAEDVAVYYCMQHLEYPLTFGQGTKLEIKR
For B2, in the experiment with human CCR8 [6], the “IC50 ratio (WT IC50/mutant IC50)” value was 1 ratio. In the experiment with human CCR8 [5], the “IC50 (nM), Ca2+ influx by 200 nM hCCL1” value was found to be 0.17 nM.

B3: 1H4 (antibody, V domains shown)
VH: EVQLVESGGRLVQPKGSLKLSCAASGFTFNTYAMYWIRQAPGKGLEWVARIRSKSNNYATYYADSVKDRFTISRDDSQSMLYLQMNNLKTEDTAMYYCVRARFYYSDYGYAMDYWGQGTSVTVSS
VL: DIVMTQAAPSVPVTPGESVSISCRSSKSLLHSNGNTYLYWFLQRPGQSPQLLIYRMSNLASGVPDRFSASGSGTAFTLRISRVEAEDVGVYYCMQHLEYPLTFGAGTKLELKR
notes: mouse hybridoma antibody
As for B3, the “IC50 (nM), Ca2+ influx by 200 nM hCCL1” value with human CCR8 [7] was determined as 0.36 nM. Further, the binding result in the experiment with N-ter hCCR4-hCCR8 is “no binding”; with hCCR8 (K35A) [8] it was “no binding”; with mouse CCR8 it was “no binding”; with hCCR8 (Y17A), “no binding”; in the experiment with human CCR4, “no binding”; with loop2 hCCR4-hCCR8 [9], “binds”. In the experiment with loop1 hCCR4-hCCR8 [10], the binding result is given as “binds”. Also, the “Neutralizing Activity IC50 (nM), Ca2+ influx by 100 nM hCCL1” value in the experiment with human CCR8 [11] is 0.32 nM.

B4: h19D7 (IGKV2-18/IGHV3-73) (antibody, V domains shown)
VH: EVQLVESGGGLVQPGGSLKLSCAASGFTFSTYAMYWVRQASGKGLEWVGRIRSKSNNYATYYADSVKDRFTISRDDSKNTAYLQMNSLKTEDTAVYYCTRGGYGNYRYAMDYWGQGTTVTVSS
VL: DIVMTQTPPSLPVNPGEPASISCRSSKSLLHSNGNTYLYWYLQKPGQSPQLLIYRVSNLASGVPDRFSGSGSGSDFTLKISWVEAEDVGVYYCMQHLEYPFTFGQGTKLEIK
For the molecule B4, the “IC50 (nM), Ca2+ influx by 200 nM hCCL1” value with human CCR8 [12] worked out at 0.46 nM.

B5: h19D7 (IGKV3-20/IGHV3-15 T94R) (antibody, V domains shown)
VH: EVQLVESGGALVKPGGSLRLSCAASGFTFSTYAMYWVRQAPGKGLEWVGRIRSKSNNYATYYADSVKDRFTISRDDSKNTLYLQMNSLKTEDTAVYYCTRGGYGNYRYAMDYWGQGTTVTVSS
VL: EIVLTQSPGTLSLSPGERATLSCRSSKSLLHSNGNTYLYWYQQKPGQAPRLLIYRVSNLASGIPDRFSGSGSGTDFTLTISRLEPEDFAVYYCMQHLEYPFTFGQGTKLEIK
notes: humanized; detected with anti-human IgG
Consider B5, for which the “binding activity in comparison” value with loop3 hCCR4-hCCR8, with hCCR8 (L29A), in the experiment with hCCR8 (L181A), with hCCR8 (K193A), in the experiment with loop2 hCCR4-hCCR8 [1] and in the experiment with hCCR8 (T13A) was not above 70% in each case. The “binding activity in comparison” value with hCCR8 (L5A), in the experiment with hCCR8 (N188A), with hCCR8 (I20A), with loop1 hCCR4-hCCR8 [2], with hCCR8 (Y15A) and in the experiment with hCCR8 (K35A) [3] was not above 70% in each case. Also, the “binding activity in comparison” value with hCCR8 (S23A), in the experiment with hCCR8 (T11A), with hCCR8 (S22A) and with hCCR8 (T10A) was not above 70% in each case.

Source of the values: patent US20220064312A1 (SHIONOGI, published 2022).
